Reference: the supplement of paper PMC6379048
pEC50: −log10 of the molar value.

Legend:
Test in all cases: EC50 of free RNA motif oligo competing protein binding to immobilised probe
PLOD1 = target: T1, PLOD1 (UniProt Q02809)
T1 sequence: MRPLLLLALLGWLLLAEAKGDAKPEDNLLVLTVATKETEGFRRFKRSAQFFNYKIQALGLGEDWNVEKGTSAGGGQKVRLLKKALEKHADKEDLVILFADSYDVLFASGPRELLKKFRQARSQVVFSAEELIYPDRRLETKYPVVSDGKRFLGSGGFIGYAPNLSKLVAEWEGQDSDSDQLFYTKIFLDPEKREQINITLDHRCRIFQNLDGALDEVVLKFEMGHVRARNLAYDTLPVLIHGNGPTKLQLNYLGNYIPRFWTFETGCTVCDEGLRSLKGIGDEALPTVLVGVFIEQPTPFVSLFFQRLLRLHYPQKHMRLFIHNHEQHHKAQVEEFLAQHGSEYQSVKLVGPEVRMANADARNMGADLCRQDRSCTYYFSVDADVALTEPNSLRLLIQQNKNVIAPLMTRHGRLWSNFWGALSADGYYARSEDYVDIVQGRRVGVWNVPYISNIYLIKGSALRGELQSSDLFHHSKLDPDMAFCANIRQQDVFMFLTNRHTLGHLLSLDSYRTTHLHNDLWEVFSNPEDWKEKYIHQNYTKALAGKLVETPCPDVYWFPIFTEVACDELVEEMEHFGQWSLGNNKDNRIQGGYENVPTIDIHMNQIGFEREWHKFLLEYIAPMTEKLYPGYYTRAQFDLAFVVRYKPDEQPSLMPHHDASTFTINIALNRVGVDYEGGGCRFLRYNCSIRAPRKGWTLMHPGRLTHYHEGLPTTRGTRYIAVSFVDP
Outline: (§1)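 Free RNA oligos (0 nM to 30 μM) were pre-incubated with HEK293-FT lysate (2.5 mg protein/well) for 1 h at 4°C, followed by 30 min at 4°C with the same 5′-amino-C6 oligos coupled to NHS-Sepharose beads. Bound proteins were quantified by label-free LC-MS/MS and normalised to the control. EC50 was derived from a four-parameter log-logistic fit, and Kd was obtained by multiplying EC50 by a protein-dependent depletion factor.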

HNRNPA2B1 = HNRNPA2B1 (UniProt P22626)
HNRNPA2B1, sequence (P22626 whole entry): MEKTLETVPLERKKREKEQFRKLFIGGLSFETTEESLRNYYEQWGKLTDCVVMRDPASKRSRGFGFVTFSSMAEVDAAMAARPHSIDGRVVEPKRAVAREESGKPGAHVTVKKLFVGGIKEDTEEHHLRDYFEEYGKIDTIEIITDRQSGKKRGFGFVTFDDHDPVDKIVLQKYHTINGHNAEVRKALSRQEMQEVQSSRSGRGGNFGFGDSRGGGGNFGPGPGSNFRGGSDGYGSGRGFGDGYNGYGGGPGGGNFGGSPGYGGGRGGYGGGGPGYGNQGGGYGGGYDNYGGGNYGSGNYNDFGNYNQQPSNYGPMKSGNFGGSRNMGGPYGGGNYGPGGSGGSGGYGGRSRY
Outline: as §1

ATIC = ATIC (UniProt P31939)
ATIC, sequence (P31939 whole entry, looked up): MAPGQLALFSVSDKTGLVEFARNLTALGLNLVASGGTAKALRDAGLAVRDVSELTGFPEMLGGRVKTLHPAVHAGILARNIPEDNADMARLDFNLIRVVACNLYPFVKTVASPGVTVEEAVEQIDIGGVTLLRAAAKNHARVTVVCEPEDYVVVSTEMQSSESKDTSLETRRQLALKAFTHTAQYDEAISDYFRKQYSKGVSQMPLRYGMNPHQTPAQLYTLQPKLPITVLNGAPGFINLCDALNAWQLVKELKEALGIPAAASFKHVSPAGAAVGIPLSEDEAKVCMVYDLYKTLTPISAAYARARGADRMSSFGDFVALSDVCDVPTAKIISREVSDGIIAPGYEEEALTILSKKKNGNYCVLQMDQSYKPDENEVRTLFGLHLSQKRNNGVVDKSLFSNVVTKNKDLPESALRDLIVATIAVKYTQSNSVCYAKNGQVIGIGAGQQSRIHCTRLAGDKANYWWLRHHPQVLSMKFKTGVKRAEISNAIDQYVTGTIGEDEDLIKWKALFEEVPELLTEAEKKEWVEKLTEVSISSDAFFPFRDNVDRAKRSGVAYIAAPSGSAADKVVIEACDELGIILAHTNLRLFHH
Outline: as §1

MRPL39 = MRPL39 (UniProt Q9NYK5)
Outline: as §1

U2AF2 = U2AF2 (UniProt P26368)
U2AF2, sequence (P26368 whole entry): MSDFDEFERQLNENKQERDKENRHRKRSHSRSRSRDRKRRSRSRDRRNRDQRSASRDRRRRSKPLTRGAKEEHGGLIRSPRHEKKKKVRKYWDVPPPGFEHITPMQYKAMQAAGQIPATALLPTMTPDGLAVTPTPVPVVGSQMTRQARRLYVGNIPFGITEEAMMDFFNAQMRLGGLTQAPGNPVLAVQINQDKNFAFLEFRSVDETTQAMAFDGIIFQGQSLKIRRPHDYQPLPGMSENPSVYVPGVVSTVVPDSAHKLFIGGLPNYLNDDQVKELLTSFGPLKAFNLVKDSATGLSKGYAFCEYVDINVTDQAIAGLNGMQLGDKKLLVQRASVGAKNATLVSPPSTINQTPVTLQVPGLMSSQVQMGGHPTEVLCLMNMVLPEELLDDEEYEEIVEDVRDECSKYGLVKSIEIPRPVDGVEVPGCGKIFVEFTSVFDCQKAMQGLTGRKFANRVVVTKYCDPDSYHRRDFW
Outline: as §1

TIAL1 = target: T2, TIAL1 (UniProt Q01085)
T2 sequence: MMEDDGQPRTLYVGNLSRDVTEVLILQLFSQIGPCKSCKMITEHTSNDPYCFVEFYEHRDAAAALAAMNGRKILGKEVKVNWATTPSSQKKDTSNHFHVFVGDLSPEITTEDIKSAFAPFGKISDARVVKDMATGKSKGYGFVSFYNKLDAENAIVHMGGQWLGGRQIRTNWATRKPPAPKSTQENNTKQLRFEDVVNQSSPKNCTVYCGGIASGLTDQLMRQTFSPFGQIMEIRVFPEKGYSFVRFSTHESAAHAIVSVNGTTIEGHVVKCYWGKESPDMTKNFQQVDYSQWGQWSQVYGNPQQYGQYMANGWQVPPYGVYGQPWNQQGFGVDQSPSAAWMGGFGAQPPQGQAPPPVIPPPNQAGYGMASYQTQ
Outline: as §1

SF3B3 = target: T3, SF3B3 (UniProt Q15393)
T3 sequence: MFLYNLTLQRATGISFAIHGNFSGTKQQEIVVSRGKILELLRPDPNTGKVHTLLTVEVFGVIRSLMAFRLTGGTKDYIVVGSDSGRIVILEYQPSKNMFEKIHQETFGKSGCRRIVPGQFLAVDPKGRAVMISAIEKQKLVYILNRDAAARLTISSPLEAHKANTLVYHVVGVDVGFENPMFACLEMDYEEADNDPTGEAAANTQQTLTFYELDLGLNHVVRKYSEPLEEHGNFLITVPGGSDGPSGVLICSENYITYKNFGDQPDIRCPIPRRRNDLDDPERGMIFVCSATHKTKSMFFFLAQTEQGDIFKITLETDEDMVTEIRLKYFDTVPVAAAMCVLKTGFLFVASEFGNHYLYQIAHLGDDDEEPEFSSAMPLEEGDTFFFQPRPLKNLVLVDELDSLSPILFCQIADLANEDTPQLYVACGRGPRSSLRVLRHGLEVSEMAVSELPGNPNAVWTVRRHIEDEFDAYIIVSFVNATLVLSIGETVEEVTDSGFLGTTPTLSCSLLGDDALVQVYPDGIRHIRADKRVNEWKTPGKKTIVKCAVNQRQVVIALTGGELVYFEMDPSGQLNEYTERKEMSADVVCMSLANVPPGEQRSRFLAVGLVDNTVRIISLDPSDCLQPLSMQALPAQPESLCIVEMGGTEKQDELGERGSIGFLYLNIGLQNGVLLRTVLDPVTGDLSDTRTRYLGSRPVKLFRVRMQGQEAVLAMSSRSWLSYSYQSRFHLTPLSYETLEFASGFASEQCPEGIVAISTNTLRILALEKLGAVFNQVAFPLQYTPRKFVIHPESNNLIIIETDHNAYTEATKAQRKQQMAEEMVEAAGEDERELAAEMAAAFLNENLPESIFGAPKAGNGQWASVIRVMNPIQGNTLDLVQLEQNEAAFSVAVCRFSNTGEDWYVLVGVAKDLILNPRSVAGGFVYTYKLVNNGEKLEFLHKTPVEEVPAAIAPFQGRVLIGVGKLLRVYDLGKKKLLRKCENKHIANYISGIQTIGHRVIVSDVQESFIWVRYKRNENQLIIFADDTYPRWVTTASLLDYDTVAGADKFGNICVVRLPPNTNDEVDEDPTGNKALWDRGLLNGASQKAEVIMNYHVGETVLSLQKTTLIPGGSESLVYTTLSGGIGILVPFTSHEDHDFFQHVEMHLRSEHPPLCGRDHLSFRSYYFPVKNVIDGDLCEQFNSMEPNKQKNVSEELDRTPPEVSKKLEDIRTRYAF
Outline: as §1

SRRM2 = SRRM2 (UniProt Q9UQ35)
SRRM2, sequence (Q9UQ35 whole entry): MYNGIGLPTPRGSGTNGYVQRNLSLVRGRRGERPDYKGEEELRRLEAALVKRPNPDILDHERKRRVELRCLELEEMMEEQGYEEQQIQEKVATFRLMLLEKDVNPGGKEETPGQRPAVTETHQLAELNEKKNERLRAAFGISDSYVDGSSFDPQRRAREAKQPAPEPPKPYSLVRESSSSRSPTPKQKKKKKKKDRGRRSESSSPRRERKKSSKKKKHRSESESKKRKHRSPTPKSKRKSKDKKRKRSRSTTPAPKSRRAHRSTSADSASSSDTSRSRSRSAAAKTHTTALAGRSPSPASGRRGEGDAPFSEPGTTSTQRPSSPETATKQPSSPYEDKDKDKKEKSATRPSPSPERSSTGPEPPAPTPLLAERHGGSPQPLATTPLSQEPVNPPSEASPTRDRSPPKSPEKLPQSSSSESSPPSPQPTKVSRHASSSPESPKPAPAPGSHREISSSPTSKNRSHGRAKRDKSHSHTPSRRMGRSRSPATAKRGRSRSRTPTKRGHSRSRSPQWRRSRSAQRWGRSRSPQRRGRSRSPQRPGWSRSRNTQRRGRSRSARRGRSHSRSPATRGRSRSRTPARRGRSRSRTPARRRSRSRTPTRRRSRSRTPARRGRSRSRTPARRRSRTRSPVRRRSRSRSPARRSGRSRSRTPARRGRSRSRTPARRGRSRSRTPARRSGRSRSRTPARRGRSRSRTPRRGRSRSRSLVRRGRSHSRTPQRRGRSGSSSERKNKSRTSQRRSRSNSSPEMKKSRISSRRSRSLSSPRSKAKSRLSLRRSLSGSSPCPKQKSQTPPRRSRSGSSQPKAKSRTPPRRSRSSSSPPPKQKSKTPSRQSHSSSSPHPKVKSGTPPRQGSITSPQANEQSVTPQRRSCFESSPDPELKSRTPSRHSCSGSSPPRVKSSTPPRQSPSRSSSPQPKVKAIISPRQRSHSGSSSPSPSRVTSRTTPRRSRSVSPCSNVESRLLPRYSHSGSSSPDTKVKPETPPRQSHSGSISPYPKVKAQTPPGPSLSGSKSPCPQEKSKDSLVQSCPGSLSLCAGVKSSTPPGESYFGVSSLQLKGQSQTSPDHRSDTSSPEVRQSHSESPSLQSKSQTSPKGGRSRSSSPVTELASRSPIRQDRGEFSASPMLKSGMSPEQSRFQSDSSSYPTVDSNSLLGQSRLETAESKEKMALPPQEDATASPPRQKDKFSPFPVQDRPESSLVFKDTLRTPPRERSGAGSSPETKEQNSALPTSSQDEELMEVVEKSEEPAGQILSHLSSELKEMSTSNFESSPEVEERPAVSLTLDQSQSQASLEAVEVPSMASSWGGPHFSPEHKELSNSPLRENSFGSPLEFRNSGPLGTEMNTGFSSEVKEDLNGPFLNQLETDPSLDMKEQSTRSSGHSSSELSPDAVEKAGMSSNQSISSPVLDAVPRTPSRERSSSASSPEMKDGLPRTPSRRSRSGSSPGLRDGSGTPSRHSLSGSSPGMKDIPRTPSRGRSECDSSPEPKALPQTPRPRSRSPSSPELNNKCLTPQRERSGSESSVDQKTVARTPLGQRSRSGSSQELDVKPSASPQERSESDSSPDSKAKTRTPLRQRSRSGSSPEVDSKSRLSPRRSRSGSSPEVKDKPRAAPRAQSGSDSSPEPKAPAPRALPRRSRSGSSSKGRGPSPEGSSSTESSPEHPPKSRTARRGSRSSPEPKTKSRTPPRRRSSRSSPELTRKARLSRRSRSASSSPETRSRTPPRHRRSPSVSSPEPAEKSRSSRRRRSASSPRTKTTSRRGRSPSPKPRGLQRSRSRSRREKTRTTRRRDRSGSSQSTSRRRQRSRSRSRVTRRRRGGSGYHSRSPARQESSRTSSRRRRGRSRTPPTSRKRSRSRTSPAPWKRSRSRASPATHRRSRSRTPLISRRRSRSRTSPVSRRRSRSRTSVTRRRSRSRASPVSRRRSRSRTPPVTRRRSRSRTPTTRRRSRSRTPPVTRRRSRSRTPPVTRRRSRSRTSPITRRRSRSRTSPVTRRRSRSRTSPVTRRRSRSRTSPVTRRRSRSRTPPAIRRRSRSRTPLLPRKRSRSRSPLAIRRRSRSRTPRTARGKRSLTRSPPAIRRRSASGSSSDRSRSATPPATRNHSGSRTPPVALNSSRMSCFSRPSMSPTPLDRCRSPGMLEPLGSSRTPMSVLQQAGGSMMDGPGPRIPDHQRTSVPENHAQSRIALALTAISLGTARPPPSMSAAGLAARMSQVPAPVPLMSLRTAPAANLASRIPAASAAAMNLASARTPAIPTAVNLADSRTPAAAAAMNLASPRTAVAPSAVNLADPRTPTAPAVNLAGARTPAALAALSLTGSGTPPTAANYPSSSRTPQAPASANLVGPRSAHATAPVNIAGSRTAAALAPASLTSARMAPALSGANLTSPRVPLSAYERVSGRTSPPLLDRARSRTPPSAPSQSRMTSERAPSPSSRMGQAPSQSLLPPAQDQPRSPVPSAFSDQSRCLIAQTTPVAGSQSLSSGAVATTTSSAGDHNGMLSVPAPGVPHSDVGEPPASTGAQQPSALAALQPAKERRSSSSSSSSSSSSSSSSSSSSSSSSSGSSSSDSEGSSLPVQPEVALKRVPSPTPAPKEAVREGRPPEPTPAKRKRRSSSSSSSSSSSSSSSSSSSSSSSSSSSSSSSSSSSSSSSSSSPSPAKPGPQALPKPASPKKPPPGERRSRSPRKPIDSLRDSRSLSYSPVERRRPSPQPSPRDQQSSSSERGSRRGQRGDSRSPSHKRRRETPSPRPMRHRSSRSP
Outline: as §1

Work on UAUUUAU yielded a pEC50 (PLOD1) of 5.17, a pEC50 (HNRNPA2B1) of 5.14 and a pEC50 (ATIC) of 6.09.

For CUGUCCU, the pEC50 (MRPL39) was 6.61.

AAUAAA was tested, and the pEC50 (U2AF2) was 5.99, the pEC50 (TIAL1) was 6.26 and the pEC50 (SF3B3) was 5.31. For the same sequence, the pEC50 (SRRM2) was 5.98.
